Experimental data: article PMC3984498

Target: V[2]-TRF2ΔBΔM
Assay: split reporter

Substance: Venus fragment-tagged Ku70 (V[1]-Ku70 / V[2]-Ku70) (from UniProt P12956 1-609) (natural protein)
- PCA fluorescence lower than with wild-type TRF2: 45%
